{"source": "patent US20200071775A1", "molecular_target": "potato virus Y (PVY)", "test": "sandwich ELISA, PVY captured by PVY capture antibody (Agdia), phage at 3 µg/ml, anti-M13 HRP detection"}
{"substance": "M13KO7 bacteriophage (from UniProt P69168 19-424; P69530 1-112; P69541 24-73)", "values": [{"measurement": "improved sensitivity compared to the existing antibody (PVY detection antibody, Agdia)", "result": 25, "unit": "%"}]}
